Target: RBD-mFc (Sino Biologicals) (SARS-CoV-2, wild type (Wuhan-Hu-1 …, UniProt P0DTC2))
Assay: BLI

B1: STE90-C11 Fab (Fab, V domains shown)
VH: QVQLVESGGGLVQPGGSLRLSCAASGLTVSSNYMSWVRQAPGKGLEWVSVIYSGGSTYYADSVKGRFTISRDDSKNTLYLQMNSLRAEDTAVYYCARDVADAFDIWGQGTMVTVSS
VL: DIVMTQSPSFLSASVGDRVTITCRASQGISSYLAWYQQKPGKAPKLLIYAASTLQSGVPSRFSGSGSGTEFTLTISSLQPEDFATYYCQQLNSYPPFTFGPGTKVDIK
  Kd: 8.1 nM
